# Target: the molecule itself
# Assay: cryo-EM structure; single-particle cryo-EM of the channel reconstituted in MSP1E3D1/SoyPC nanodiscs; 50 mM Tris pH 8.0, 150 mM NaCl; C5 symmetry imposed
protein,measurement,value
"Malus domestica VCCN1, N-terminally truncated ""wild-type"" construct (natural protein) MPNPSPPSSSSPVQTLISILRIIPDWSDRTQERGMRQHRTLYDHEKWMHHRSSYRHLRHLLSSLSSRVILSLIPPVIAFTLVAVVIASYNTAVALDLLPGIFPLLRSSSLPYQLTAPALALLLVFRTEASYSRFEEGRKAWTEVIAGANDFARQIISSVETSGDAQLKKALLQYIVAFPVALKCHVIYGSDIARDLQNLLEVDDLLVVLNSKHRPGCIIQFISRSLQLLKLEESRRIMLQSKISCFHEGIGICEQLIGTPIPLSYTRLTSRFLVLWHLTLPIILWDDCHWIVVPATFISAASLFCIEQVGVLIEEPFPMLALDDLCNSVRNNVQEALASEKLIRARLAAKGRIQSEQQFQNGQPRPENLYFQ",stoichiometry N,5

# From article PMC9076864, “Cryo-EM structures of thylakoid-located voltage-dependent chloride channel VCCN1” (Nature Communications, 2022)
